Positions of bridges follow the written chain, without caps; N, C: chain ends. No end group written: not given here.
Columns and labels:
hBMECs = experiment: Peptide cytotoxicity assay (XTT); assay type: cell-based, human; settings: positive control; hBMECs; untreated = 100% viability
Experimental: The toxicity of peptides was determined by the XTT test (AppliChem, USA) as per the manufacturer’s instructions. Details are presented in Supplementary Method S15. […]
Cytotoxicity assay. hBMECs were cultured in 96-well TPP tissue culture plates (Sigma) in supplemented EBM-2 medium (Lonza) to obtain ~70% confluency (as described in Supplementary Method S1). The peptides in concentrations of 1 µM, 2 µM, 4 µM, and 6 µM (diluted in 100 µL of EBM-2 medium supplemented only with 10% FBS, 10 mM HEPES and 1 ng/mL bFGF; Sigma) were added and incubated for 24 h at 37°C in a humid atmosphere of 5% CO2. Untreated cells served as a negative control (100% viability). For positive control, cells treated with 0.01% Triton X-100 were used. After incubation, the mixture of XTT and activation reagent (5:0.1 [v/v], 50 µL each well) was added to each well and incubated for an additional 3 h at 37°C in a humid atmosphere of 5% CO2. The absorbance was measured at 450 nm. The assay was performed in replicates. The viability (%) of endothelial cells was calculated using the formula: Cell viability (%) = [(A - xA ) × 100] / (xA -

[1] = biological target: proteins of hBMECs (human (endogenous in hBMECs)); experiment: ELISA; proteins of hBMECs coated into microtiter wells, rDIII (2 µg, printed as 0.15 nM) added without pre-blocking; negative control (no rDIII) subtracted
[2] = biological target: T1, 7-mer cyclic peptide CP2 (ACX7CGGGS form of CTKTDVHFC) (disulfide 2-10 (inferred)); experiment: ELISA; peptides covalently coated through their C-terminus in Nunc CovaLink NH plates (EDC plus sulfo-NHS), blocked with 0.5% BSA in PBS, incubated with rDIII, detected with HisProbe-HRP; negative control (no rDIII) subtracted; settings: both partners purified
T1 construct: additional alanine at the N-terminus (ACX7CGGGS); peptide of phage clone CC2; C-terminal linker; source: E. coli SHuffle T5, purified; N-terminal tag cleaved with enterokinase and removed on nickel beads; not shown: His6, N-terminal, cleaved; 28 aa tag, N-terminal, cleaved
T1 peptide: ACTKTDVHFCGGGS

[3] = biological target: T2, 7-mer cyclic peptide CP4 (ACX7CGGGS form of CIHSSTRAC) (disulfide 2-10 (inferred)); experiment: as above; settings: both partners purified
T2 construct: additional alanine at the N-terminus (ACX7CGGGS); peptide of phage clone CC4; C-terminal linker; source: E. coli SHuffle T5, purified; N-terminal tag cleaved with enterokinase and removed on nickel beads; not shown: His6, N-terminal, cleaved; 28 aa tag, N-terminal, cleaved
T2 peptide: ACIHSSTRACGGGS

[4] = biological target: T3, 7-mer cyclic peptide CP6 (ACX7CGGGS form of CMQTQRAHC) (disulfide 2-10 (inferred)); experiment: as above; settings: both partners purified
T3 construct: additional alanine at the N-terminus (ACX7CGGGS); peptide of phage clone CC6; C-terminal linker; source: E. coli SHuffle T5, purified; N-terminal tag cleaved with enterokinase and removed on nickel beads; not shown: His6, N-terminal, cleaved; 28 aa tag, N-terminal, cleaved
T3 peptide: ACMQTQRAHCGGGS

[5] = biological target: T4, 7-mer cyclic peptide CP7 (ACX7CGGGS form of CTNANHYFC) (disulfide 2-10 (inferred)); experiment: as above; settings: both partners purified
T4 construct: additional alanine at the N-terminus (ACX7CGGGS); peptide of phage clone CC7; C-terminal linker; source: E. coli SHuffle T5, purified; N-terminal tag cleaved with enterokinase and removed on nickel beads; not shown: His6, N-terminal, cleaved; 28 aa tag, N-terminal, cleaved
T4 peptide: ACTNANHYFCGGGS

[6] = biological target: T5, 7-mer cyclic peptide CP12 (ACX7CGGGS form of CTYENHRTC) (disulfide 2-10 (inferred)); experiment: as above; settings: both partners purified
T5 construct: additional alanine at the N-terminus (ACX7CGGGS); peptide of phage clone CC12; C-terminal linker; source: E. coli SHuffle T5, purified; N-terminal tag cleaved with enterokinase and removed on nickel beads; not shown: His6, N-terminal, cleaved; 28 aa tag, N-terminal, cleaved
T5 peptide: ACTYENHRTCGGGS

[7] = biological target: T6, 7-mer cyclic peptide CP15 (ACX7CGGGS form of CDPRHSKFC) (disulfide 2-10 (inferred)); experiment: as above; settings: both partners purified
T6 construct: additional alanine at the N-terminus (ACX7CGGGS); peptide of phage clone CC15; C-terminal linker; source: E. coli SHuffle T5, purified; N-terminal tag cleaved with enterokinase and removed on nickel beads; not shown: His6, N-terminal, cleaved; 28 aa tag, N-terminal, cleaved
T6 peptide: ACDPRHSKFCGGGS

[8] = biological target: T7, 7-mer cyclic peptide CP16 (ACX7CGGGS form of CLAQSHPLC) (disulfide 2-10 (inferred)); experiment: as above; settings: both partners purified
T7 construct: additional alanine at the N-terminus (ACX7CGGGS); peptide of phage clone CC16; C-terminal linker; also called C16; source: E. coli SHuffle T5, purified; N-terminal tag cleaved with enterokinase and removed on nickel beads; not shown: His6, N-terminal, cleaved; 28 aa tag, N-terminal, cleaved
T7 peptide: ACLAQSHPLCGGGS

[9] = biological target: T8, 12-mer linear peptide LP3 (X12GGGS form of SGVYKVAYDWQH); experiment: as above; settings: both partners purified
T8 construct: peptide of phage clone LC3; C-terminal linker; source: E. coli SHuffle T5, purified; N-terminal tag cleaved with enterokinase and removed on nickel beads; not shown: His6, N-terminal, cleaved; 28 aa tag, N-terminal, cleaved
T8 peptide: SGVYKVAYDWQHGGGS

For Triton X-100 [reference compound], the “cell viability (XTT)” value (hBMECs) was under 2.8%.

“recombinant domain III (DIII) of the envelope (E) glycoprotein of West Nile virus (domain or fragment)” showed an A450 [1] of 1.06.

B1: recombinant domain III (DIII) of the envelope (E) glycoprotein of West Nile virus (domain or fragment)
chain: GTTYGVCSKAFKFLGTPADTGHGTVVLELQYTGTDGPCKVPISSVASLNDLTPVGRLVTVNPFVSVATANAKVLIELEPPFGDSYIVVGRGEQQINHHWHK
In the case of B1, the A450 [2] is reported as over 1.9, the A450 [3] is reported as over 1.9 and the A450 [4] is reported as over 1.9. The A450 [5] was over 1.9, the A450 [6] was over 1.9 and the A450 [7] was over 1.9. It also gave an A450 [8] of over 1.9 and an A450 [9] of 2.56.

From paper PMC8505397, “Development of peptides targeting receptor binding site of the envelope glycoprotein to contain the West Nile virus infection” (Scientific Reports, 2021)
